Changes are numbered by the printed parent chain.
Experiments:
[1] = biological target: T1, human non-variant SASH1-SPIDER (396-564) (human, UniProt O94885 396-564); test: MST
T1 sequence (looked up): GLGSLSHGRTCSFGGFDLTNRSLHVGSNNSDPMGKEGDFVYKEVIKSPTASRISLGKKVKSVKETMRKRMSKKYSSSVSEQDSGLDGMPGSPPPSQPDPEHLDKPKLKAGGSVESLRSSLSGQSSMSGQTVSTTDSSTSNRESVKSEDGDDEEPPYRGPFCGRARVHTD

[2] = biological target: T2, SASH1-SPIDER (396-564) S519N (human, UniProt O94885 396-564, S519N); test: NMR titration
T2 sequence (looked up): T1 sequence (looked up) with S124N

B1: ARC4 domain of TNKS2 with flanking residues (488-649) (domain or fragment, UniProt Q9H2K2 488-649, looked up)
chain: GNSEADRQLLEAAKAGDVETVKKLCTVQSVNCRDIEGRQSTPLHFAAGYNRVSVVEYLLQHGADVHAKDKGGLVPLHNACSYGHYEVAELLVKHGAVVNVADLWKFTPLHEAAAKGKYEICKLLLQHGADPTKKNRDGNTPLDLVKDGDTDIQDLLRGDAAL
modifications: red fluorescent dye NT-647 Maleimide (in the MST experiment only)
B1 was tested, and the Kd [1] was 1700 ± 400 nM and the “fold attenuation of affinity against N.V.” value [2] was about 10 fold.

Reference: publication doi:10.1101/2023.09.26.559624 (bioRxiv, 2023)
